According to patent US20050089880:

How the values were obtained:
[1] = biological target: T1, N-terminus of human CENP-A peptide
T1 chain: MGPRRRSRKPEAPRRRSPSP

[2] = biological target: wild-type N-terminus of human histone H3 peptide (aa 1-20)
[3] = biological target: T2, N-terminus of rat macro-H2A peptide
T2 chain: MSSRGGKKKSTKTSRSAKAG

[4] = biological target: T3, mutated H3 (K9L) N-terminal peptide
T3 chain: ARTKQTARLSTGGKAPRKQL

B1: triple myc-tagged C-terminally truncated SUV39H1 protein (aa 3-118) (protein)
chain: ENLKGCSVCCKSSWNQLQDLCRLAKLSCPALGISKRNLYDFEVEYLCDYKKIREQEYYLVKWRGYPDSESTWEPRQNLKCVRILKQFHKDLERELLRRHHRSKTPRHLDPSLANYL
In the case of B1, the “in vitro HMTase activity (transfer of 14C-methyl label to free histones, fluorography)” value (histone H3) is reported as “no signals were detected with extracts from a HeLa cell line that expresses only the N-terminal third of SUV39H1 (aa 3-118)”.

B2: murine GST-Suv39h1 product comprising aa 7-221 (protein)
chain: GCSVCCKSSWNQLQDLCRLAKLSCPALGVSKKNLYDFEVEYLCDYKKIREQEYYLVKWRGYPDSENTWEPRQNLKCIRVLKQFHKDLERELVRRHRRSKPPRHLDPNLANYLVQKAKQRRALQRWEQELNAKRSHLGRITVENEVDLDGPPRSFVYINEYRVGEGITLNQVAVGCECQDCLLAPTGGCCPGASLHKFAYNDQGQVRLKAGQPIYE
In the case of B2, the “in vitro HMTase activity (free histones, fluorography)” value (histone H3) is reported as “proved negative, even at higher protein concentrations”.

B3: murine GST-Suv39h1(aa 82-412) (protein)
chain: CIRVLKQFHKDLERELVRRHRRSKPPRHLDPNLANYLVQKAKQRRALQRWEQELNAKRSHLGRITVENEVDLDGPPRSFVYINEYRVGEGITLNQVAVGCECQDCLLAPTGGCCPGASLHKFAYNDQGQVRLKAGQPIYECNSRCCCGYDCPNRVVQKGIRYDLCIFRTNDGRGWGVRTLEKIRKNSFVMEYVGEIITSEEAERRGQIYDRQGATYLFDLDYVEDVYTVDAAYYGNISHFVNHSCDPNLQVYNVFIDNLDERLPRIAFFATRTIWAGEELTFDYNMQVDPVDMESTRMDSNFGLAGLPGSPKKRVRIECKCGTTACRKYLF
For B3, the “in vitro methylation of individual histones (fluorography)” value (from here on “in vitro methylation … (fluorography)”) (histone H2A) was “no signals are detected with H2A, H2B or H4”, the “in vitro methylation of N-terminal peptides (SDS-PAGE, fluorography)” value (“in vitro methylation … (SDS-PAGE, fluorography)” below) (insulin) was “no signals were detected with the CENP-A or macroH2A peptides, or with insulin” and the “in vitro methylation … (fluorography)” value (histone H4) was “no signals are detected with H2A, H2B or H4”. The “in vitro methylation … (fluorography)” value (histone H1) was “A weak signal is present if H1 was used as the sole substrate”, the “in vitro methylation … (SDS-PAGE, fluorography)” value [1] was “no signals were detected with the CENP-A or macroH2A peptides, or with insulin” and the “in vitro HMTase activity (free histones, fluorography)” value (histone H3) was “maintained HMTase activity (although at a reduced level as compared to transfected SUV39H1)”. For the same protein, the “in vitro methylation … (fluorography)” value (histone H3) was “H3 is specifically methylated by GST-Suv39h1(aa 82-412)”, the “3H-incorporation of individual amino acids (microsequencing of the in vitro methylated peptide, scintillation counting)” value [2] was “The results confirmed selective transfer of methyl-label to lysine 9” and the “in vitro methylation … (SDS-PAGE, fluorography)” value [2] was “selective methylation of the wild-type H3 peptide”. For the same protein, the “in vitro methylation … (SDS-PAGE, fluorography)” value [3] was “no signals were detected with the CENP-A or macroH2A peptides, or with insulin”, the “in vitro methylation … (SDS-PAGE, fluorography)” value [4] was “the mutated H3 (K9L) peptide was not a substrate” and the “in vitro methylation … (fluorography)” value (histone H2B) was “no signals are detected with H2A, H2B or H4”.

B4: triple myc-tagged full-length human SUV39H1 (aa 3-412) (protein)
chain: ENLKGCSVCCKSSWNQLQDLCRLAKLSCPALGISKRNLYDFEVEYLCDYKKIREQEYYLVKWRGYPDSESTWEPRQNLKCVRILKQFHKDLERELLRRHHRSKTPRHLDPSLANYLVQKAKQRRALRRWEQELNAKRSHLGRITVENEVDLDGPPRAFVYINEYRVGEGITLNQVAVGCECQDCLWAPTGGCCPGASLHKFAYNDQGQVRLRAGLPIYECNSRCRCGYDCPNRVVQKGIRYDLCIFRTDDGRGWGVRTLEKIRKNSFVMEYVGEIITSEEAERRGQIYDRQGATYLFDLDYVEDVYTVDAAYYGNISHFVNHSCDPNLQVYNVFIDNLDERLPRIAFFATRTIRAGEELTFDYNMQVDPVDMESTRMDSNFGLAGLPGSPKKRVRIECKCGTESCRKYLF
For B4, the “in vitro HMTase activity (transfer of 14C-methyl label to free histones, fluorography)” value (histone H3) was “indicating selective transfer of the methyl-label to H3”.
